Assay: label from the status in PepcDB records

Sequence | protein production
MLIILTGLPSVGKSTFSKAFSKKMAEKNIDNIILGTDLIRESFPVWKESYEEFIRDSNNYLIKEALENKFSVIVDDTNYYNSKRRDLMNIAKECDTNYVTIYLKAPLNLLLKRNIERGQKIPNEVIKNMYEKFDTPGTKYAWDLPDITVDTTEKIDYNEILNEILEINENKNLKIEEDKIPKSEPVESDLVKIDSLTRNIVGNLIKTGKIDKKDIKLLSEIRKSFLKDCKKIESEKLDFEKIEKDFLDYLNKNLK | failed
MTPQDAQAFEQLLANCADEPIRSPGAIQPHGVLLTLSEPELRIQQISANVEALLGQPAAQVLGQPLEQLLGDTDGQRIREVLQLPRLSDAPPLHLAVNGARFEGLLHRHQGVLMLELEIQLEHLQPQHLKEQTENLGRLLRRLQTAKTLNELYAISVSEIQAMTGYDRVLIYRFEEEGHGQVIAEATRPTMEVFNGLFFPASDIPQQARELYRSNWLRIIPNADYQPVPLLPALRPDTQQALDLSFATLRSVSPIHCQYMKNMGVLSSMSISLLKGDQLWGLISCGNRQPLLVPHELRIACQTIGQVLSLQISAMEALDISRQREEKVTALASLDQAMRDTPDSVFDGLAQVPQLLLDLTQAGGVAIIEDKQLHCFGNCPPQDEIRALHRWLQGTGQAVFASHHLANVYPPAASYQQVASGVLAMTLPKPVDNGVLWFRPEVKENINWSGNPQKPLDLENSDAGLRLRPRTSFEIWKVEMAGISTKWSHGDRFAANDLRRSALEHDLARQVLREQQAVRARDELVAVVSHDLRNPMTVISMLCGMMQKAFSSDGPHTSRRISSAIDTMQQAASRMNNLLEDLLDTSKIEAGRYSIAPQPLDVSQMFEEAYSLLAPLALDKAIDISFHAEPDLRINADPERLFQVLSNLVGNAIKFTPKQGKVGVVAMSDGEQIVFSVRDSGEGIPTDQLPFIFDRYWTMKEGNPNGTGLGLYITQGIIHAHGGKIEAHSEVGKGSEFRFSVPRASL | failed
NLNSIQNFGAIDILCTDKTGTLTQDKVVLEYHLNVNGEDDTRVLRHAYLNSYFQTGYKNLMDLAIIHKTEEEEAADSRLIDLSENYVKVDEIPFDFTRRRLTTVVQDNKGKTQMVTKGAVEEMLSICAFAECNGGVQPLTDDVRYRILETVDNLNDKGFRVLAIAQKSNPSPIGAFGVKDECDMVLIGYLAFLDP | failed
MPIRDDISWPPSAVCSVSLILHLPGRFGHVSVAHLLLDHGADVNAQNRLGASVLTVASRGGHLGVVKLLLEAGAFVDHHHPSGEQLGLGGSRDEPLDITALMAAIQHGHEAVVRLLMEWGADPNHAARTVGWSPLMLAALTGRLGVAQQLVEKGANPDHLSVLEKTAFEVALDCKHRDLVDYLDPLTTVRPKTGQAACPPWLHRGPQIVFMWLKLRIALLEGHAELRVQPCRPLRLRKWCA | not failed
MSRTNINFNNKRTELANKIWDIFIANGYENTTLAFIINKLGISKGALYHYFSSKEECADAAIENRVAFFSNEVLKESEEGLNSIERLKKILLAGIKITSVNEQVKEINSPSNKIFHQKLMVAIIKYFAPIYADIISQGNEEGVFKVKYPLETAEIILTLSHFYLDEDLFKWKKEDMSLKLTAFKETLIKILDADEDTFDFIK | not failed
MFVNQHGYSFGLSCALDGLSKREKDAQRQNKLLELGLLTNRNSTFFEEATQTLARNLGLPICLVGLMVEDEINIVSAVGIYRLGVGNPNLVSRQISRNDAYCTLVVDSAMPLMITDALAEPFFAEGELYQRYGIRSYLGTPLLTRDGVCLGTLAALDFSPHDFREPDVALMNMTARWCMGEIEH | failed
MKYIEPHFISFTQHTLKSQLIPKSFHGMKILQFSDLHLGYYFSLQHLSQVVSKINAVNPDIVLFTGDLIDNYQTYTDTPFVASILKNIQAPFGKFAIYGNHDHGGYGTEYYEHIMRESGFELLLNSKKRIRLMDNSEISIFGLDDILLGKPKIEKTLQHARQNTYNIVLVHEPDIAPQISKYPINLQLSGHSHGGQVQIPFLGAIITPSLAKDYIEGFYTMQDLTLYVNRGLGRTRVPFRFMSKPEITIFTLQHSLEHHHHHH | failed
MGLVTDEVRARAEKYTGDEICREKTKEFLKEVSMPNGLLPLKDIEEVGYDRETGIVWLKQKKSITHKFEAIGKLVSYATEVIAQVEVGKIKKLTGVKAKELLIWVTLNELVLEQPTSSGKINFRTPTGLSRTFPVSAFVVPEVEKPATEKNNGTTEVKEAVAVTDA | failed
MAKNIQAIRGMNDYLPGETAIWQRIEGTLKNVLGSYGYSEIRLPIVEQTPLFKRAIGEVTDVVEKEMYTFEDRNGDSLTLRPEGTAGCVRAGIEHGLLYNQEQRLWYIGPMFRHERPQKGRYRQFHQLGCEVFGLQGPDIDAELIMLTARWWRALGISEHVTLELNSIGSLEARANYRDALVAFLEQHKEKLDEDCKRRMYTNPLRVLDSKNPEVQALLNDAPALGDYLDEESREHFAGLCKLLESAGIAYTVNQRLVRGLDYYNRTVFEWVTNSLGSQGTVCAGGRYDGLVEQLGGRATPAVGFAMGLERLVLLVQAVNPEFKADPVVDIYLVASGADTQSAAMALAERLRDELPGVKLMTNHGGGNFKKQFARADKWGARVAVVLGESEVANGTAVVKDLRSGEQTAVAQDSVAAHLRTLLG | not failed
MIINITILEDNESDFITLSDSIKKWAANTGILINIIWLNSYKKFIKSLPTLKCDLFFSDIELNCNNSFTGIDACKQLRESGYTGIIIFLTAFKEYVFDGYDVQAFNYLLKPINYGTINNCLDKFIHLFSLEHHHHHH | not failed
MDVFSEYLAGIADPFHRERTEEVLTWIKNKYPNLHTEIKWNQPMFTDHGTFIIGFSVSKKHLAVAPEKVTIAHVEDDIVKAGYDYTEQLIRIPWNGPVDYTLLEKMIEFNILDKADCSTFWRK | not failed
MRLTSKGRYAVTAMLDVALNSEAGPVPLADISERQGISLSYLEQLFSRLRKNGLVSSVRGPGGGYLLGKDASSIAVGEVISAVDESVDATRCQGKGGCQGGDKCLTHALWRDLSDRLTGFLNNITLGELVNNQEVLDVSGRQHTLEHHHHHH | not failed
MELNQPPLPTEIDGDAYHKPSFNDLGLKESVLKSVYEAGFTSPSPIQEKAIPAVLQGRDVIAQAQTGTGKTAAFALPIINNLKNNHTIEALVITPTRELAMQISDEIFKLGKHTRTKTVCVYGGQSVKKQCEFIKKNPQVMIATPGRLLDHLKNERIHKFVPKVVVLDESDEMLDMGFLDDIEEIFDYLPSEAQILLFSATMPEPIKRLADKILENPIKIHIAPSNITNTDITQRFYVINEHERAEAIMRLLDTQAPKKSIVFTRTKKEADELHQFLASKNYKSTALHGDMDQRDRRSSIMAFKKNDADVLVATDVASRGLDISGVSHVFNYHLPLNTESYIHRIGRTGRAGKKGMAITLVTPLEYKELLRMQKEIDSEIELFEIPTINENQIIKTLHDAKVSEGIISLYEQLTEIFEPSQLVLKLLSLQFETSKIGLNQQEIDAIQNPKEKTPKPSNKKTPQHERARSFKKGQHRDRHPKTNHYSKKPKRR | failed
MASKEAHVSLARGEQSVKRIKEFDPGKDSFSVLLLGIDAREKNGETVDQARSDANVLVTFNRKEKTAKMLSIPRDAYVNIPGHGYDKFTHAHAYGGVDLTVKTVEEMLDIPVDYVVESNFTAFEDVVNELNGVKVTVKSDKVIQQIKKDTKGKVVLQKGTHTLDGEEALAYVRTRKADSDLLRGQRQMEVLSAIIDKSKSLSSIPAYDDIVDTMGQNLKMNLSLKDAIGLFPFITSLKSVESIQLTGYDYEPAGVYYFKLNQQKLQEVKKELQNDLGVLEHHHHHH | not failed
MEHSSMPLWLSSFEEEIDTYIFISSRDNKLYLGILRTYDQHGNVFLTHCVEKIIVPEKNYFSDVYVGNLIIRGDNIAYFGSVDEEKYCKMFDYTIKNDNDEEHNNMDMIKNKKEYSSSENIILVYKPINHILKFIPENNADSSIFEN | failed
MSLAPRPRILICEDDPDIARLLNLMLEKGGFDSDMVHSAAQALEQVARRPYAAMTVDLNLPDQDGVSLIRALRRDSRTRDLAIVVVSANAREGELEFNSQPLAVSTWLEKPIDENLLILSLHRAIDNMAEGKEGHHHHHH | not failed
MCDFISHNKQLFDELDIFIDSLATKEGALIQVLHEAQGIFGYLPKEVQLHVARKLGVAPAKVYGVVTFYSYFTTEPVGKYKISVCLGTVCFVKGADKILSAFEKQLGIKVGETTSDFKFSLEGLRCLGACGLAPVVTVNGKVYGKVKPDQVSEILDTYRELELNC | failed
MPDNFLIVPSADVQGGRLTTLSNAISTTDLNLTVTGLSNDTELVVYQLSTGVIGTPQAAAQPRETHVFALMGQSNMIGRAAFDGGAKWPDGTLQIGRGGDEDGAIIPARNPADGPATSRPLAHTGARLGNMGLDIQFAIDYLSDKPDVTLLFIPCAQGATGFSNGAWNPGDWLYNRETARINAAMNANPEFLFQGFLWHQGETDTGIPGTYGGLLDNLIAGLRRDVTAATPTTPFILGGLAAGNAGRDAITGIIAATPGRVPYTAFAPTADLSLTDANHFDAASFRTLGARYAAALASAAANQPGAPGIPTGLSAVAGDTEVTLSWSAPANTGGTALSDYIIERDSGSGFAALADGTGTTTGYTDSGLSNGTTYAYRVRAVNGTGTGAATPPQSATPAAPATGPVAEAGAQAHWLFGADNPTYADLVSGRIATGPAHALEAAYMTSPAGIRQGRDTGIAEADAQTMCFVFQLAGSANSMIGGTLTTSGSNGVSPYTSATTGIYANMRGGWGNPAISSASPYRTQFVFAAVSKNVATGNYVLFAGNGAGHDVLTGTSAQTTSPRTIGIGNLHFDRANFSGQISIAEAILFDSAKTEIELTEIYDRSRTRLAARGLTVV | failed
MEGAEEAGAEIAVDSKDLQQQSKAFDKLTDRVEDRQLDSSRVQSAMASIAASREADLNAKRLREKELASVKINPADVEFIVNELEIEKNVAERTLREHKGDAVAATRQLLSRYPL | failed
MGNFTFEEMNLMCIYNTGSRTGLIDSLREMRGELAPEETELRELTDSALGNLQAMSDAEFAELELYPDFDQ | failed
MRPTPYLAPIPVRGRISRPQPKGLPVINMGYNELPYPPLPAIRAAMEETAERAQSYGSPHCDALRDALGAAHGLDPEQIVCGNGSEELLDVIARCFARPGDEILISEFGYIQFALTANRVGATLVKARERDNTSDVDALLAAVSEHTRLLFLANPNNPTGTMLEIDELSRLARDLPAQVVLVLDLAYGEFAAPDYCAAVHSLAANHENIVVTRTFSKAYGLAGARVGWCHAPAWMVPVLYAARGMGTVNALAQAGAVAGLADPAAIQERVDEIVSERARLTGALGQLGLVVTPSRTNFLMARFREGDAARTEALVEHLFEDAGIVVNRTREAGLEAFFRFSLSLPAHNDLLLDSIRRFIGQG | failed
MNLPMTMSLQTVSFEEFITTIAAALGCGLLVGLERERSKLKHEYKTFAGFRSFAISSLLGAICFLFGTAIGIVGALLIGAISIVSLKNQPNDPGVTTELAFIMTYFIGALCIWNISLAAGLAVIMTIILLAKQSMHGIASQWITESELRDGIFLLALLLIALPLVPNKPFWGPVLNPHVILKLLTLILFVQALAHIAKRLLSSKNALLLSSLASGFVSSTATIASLGLEVRSGRANAKTNAGAALMSCVSTLVQTLIIVVGISLAWFKLIIFPTLIALAFLAVWAFILLRKAEPSTTSPELDSRMFSLKEAVIIAGTLTLIQAGVYGLSLYLGNAGLIAGTLLASLFEIHAAIAAVIVQGEPNNSQTSLLIAFMGGFAVHAIAKSINSAISGGLHYALAFIPAQILHMTIFIGLLWMNIHWF | failed
MKQNLVAVDILLNQMRDRNIKLDSFVVSAIIETNCDRCRTEGASLAFDYSLEMGIHLKKSAYLALIGNFLRSNELPKVIEVVKEMVKAQHSLGCYQGAMLIHRLGFGRRPRLAADVFDLLPDDQKGVAAYTALMDVYISAGSPEKAMKILREMREREIMPSLGTYDVLLSGLEKTSDFQKEVALLRKEKKSLVASARFRENVHVEDKICDLLFATNLL | failed

Source: a protein production outcome set (Wang et al. 2014)
